This note sets out measurements from article PMC3834829, “A signature motif mediating selective interactions of BCL11A with the NR2E/F subfamily of orphan nuclear receptors” (Nucleic Acids Research, 2013).

B1: LexA-NSD1-(790–818) [not stated] / AAD-ERα-LBD-(282–595) [not stated] (parent complex)
chain 1: SSQNHIPIEPDYKFSTLLMMLKDMHDSKT
chain 2: SAGDMRAANLWPSPLMIKRSKKNSLALSLTADQMVSALLDAEPPILYSEYDPTRPFSEASMMGLLTNLADRELVHMINWAKRVPGFVDLTLHDQVHLLECAWLEILMIGLVWRSMEHPGKLLFAPNLLLDRNQGKCVEGMVEIFDMLLATSSRFRMMNLQGEEFVCLKSIILLNSGVYTFLSSTLKSLEEKDHIHRVLDKITDTLIHLMAKAGLTLQQQHQRLAQLLLILSHIRHMSNKGMEHLYSMKCKNVVPLYDLLLEMLDAHRLHAPTSRGGASVEETDQSHLATAGSTSSHSLQKYYITGEAEGFPATV

Variants of B1 are the subject of the assay. Description: yeast two-hybrid; + 1µM E2; read off a plot.
Regarding chain 1 SSQNHIPIEPDYAFSTLLMMLKDMHDSKT [chain 1 K13A], the response was around 2100 nmol/mg/min.

Take chain 1 SSQNHIPIEPDAKFSTLLMMLKDMHDSKT [chain 1 Y12A]: the response is around 2000 nmol/mg/min.

For chain 1 SSQNHIPIEPDYKFATLLMMLKDMHDSKT [chain 1 S15A], the response was around 0 nmol/mg/min.
